Data set [1] has as its target T1, Protein A, recombinant (P7837) (Staphylococcus aureus, UniProt P02976 37-327). The data set is described as follows: ELONA; signal in range of library control; ELONA and bead assay: 100 mM NaCl, 20 mM Tris-HCl pH 7.6, 10 mM MgCl2, 5 mM KCl, 1 mM CaCl2, 0.005% Tween 20, 21 C; CD: 25 mM Britton-Robinson pH 7.6, 100 mM NaCl, 10 mM MgCl2, 1 mM CaCl2, 5 mM KCl.
The target in data set [2] is T2, Protein A, native (Staphylococcus aureus, UniProt P38507 37-477). In words: CD difference spectrum; ELONA and bead assay: 100 mM NaCl, 20 mM Tris-HCl pH 7.6, 10 mM MgCl2, 5 mM KCl, 1 mM CaCl2, 0.005% Tween 20, 21 C; CD: 25 mM Britton-Robinson pH 7.6, 100 mM NaCl, 10 mM MgCl2, 1 mM CaCl2, 5 mM KCl.
The target of data set [3] is T1, Protein A, recombinant (P7837). In words: ELONA; ELONA and bead assay: 100 mM NaCl, 20 mM Tris-HCl pH 7.6, 10 mM MgCl2, 5 mM KCl, 1 mM CaCl2, 0.005% Tween 20, 21 C; CD: 25 mM Britton-Robinson pH 7.6, 100 mM NaCl, 10 mM MgCl2, 1 mM CaCl2, 5 mM KCl. The following applies: protein: recombinant.
Data set [4] has as its target T2, Protein A, native. The data set is described as above. The note with it: protein: native; label: 3'-biotin; G4 (parallel, di-/multimers) plus 5' imperfect hairpin.

Binding result and Kd data for ten molecules are collected here from paper PMC5030626, “G-quadruplex aptamer targeting Protein A and its capability to detect Staphylococcus aureus demonstrated by ELONA”.

B1: PA#2/8[S1-43] (Bio) (structured_DNA)
DNA: ATACCAGCTTATTCAATTAGCAACATGAGGGGGATAGAGGGGG
B1: the binding result in data set [1] (label: biotin (5' or 3'), G4, mainly monomer, plus 5' imperfect hairpin) was “no binding”.

B2: PA#2/8[S1-43] (unlabelled) (structured_DNA)
DNA: ATACCAGCTTATTCAATTAGCAACATGAGGGGGATAGAGGGGG
As to B2, the binding result with Protein A, native [2] (G4, mainly monomer, plus 5' imperfect hairpin) is recorded as “binds”.

B3: PA#2/8[S1-50] (Bio) (structured_DNA)
DNA: ATACCAGCTTATTCAATTAGCAACATGAGGGGGATAGAGGGGGTGGGTTC
For B3, the binding result in data set [1] (label: biotin (5' or 3'; 3' on cells), G4 plus 5' imperfect hairpin) is listed as “no binding”.

B4: PA#2/8[S1-50] (unlabelled) (structured_DNA)
DNA: ATACCAGCTTATTCAATTAGCAACATGAGGGGGATAGAGGGGGTGGGTTC
In the case of B4, the binding result with Protein A, native [2] (G4 plus 5' imperfect hairpin) is “binds”.

B5: PA#2/8[S1-58] (3'Bio) (structured_DNA)
DNA: ATACCAGCTTATTCAATTAGCAACATGAGGGGGATAGAGGGGGTGGGTTCTCTCGGCT
As for B5, the Kd (as a rule, the equilibrium constant for the complex coming apart) in data set [3] (label: 3'-biotin, G4 plus 5' imperfect hairpin) came out at 11.3 ± 1.4 nM.

B6: PA#2/8[S1-58] (unlabelled) (structured_DNA)
DNA: ATACCAGCTTATTCAATTAGCAACATGAGGGGGATAGAGGGGGTGGGTTCTCTCGGCT
On to B6, for which, in the data set with Protein A, native [2] (G4 plus 5' imperfect hairpin), the binding result is “binds”.

B7: PA#2/8[S1-58] (5'Bio) (structured_DNA)
DNA: ATACCAGCTTATTCAATTAGCAACATGAGGGGGATAGAGGGGGTGGGTTCTCTCGGCT
Turning to B7, the Kd in data set [3] (label: 5'-biotin, G4 plus 5' imperfect hairpin) came out at 23.7 ± 2 nM.

B8: PA#2/8 (3'Bio) (structured_DNA)
DNA: ATACCAGCTTATTCAATTAGCAACATGAGGGGGATAGAGGGGGTGGGTTCTCTCGGCTACAATCGTAATCAGTTAG
As for B8, in the data set with Protein A, native [4], the binding result was “binds”. Further, in data set [3] (label: 3'-biotin, G4 (parallel, di-/multimers) plus 5' imperfect hairpin), the Kd was 101 ± 5.9 nM.

B9: PA#2/8 (unlabelled) (structured_DNA)
DNA: ATACCAGCTTATTCAATTAGCAACATGAGGGGGATAGAGGGGGTGGGTTCTCTCGGCTACAATCGTAATCAGTTAG
B9: the binding result with Protein A, native [2] (G4 (parallel, di-/multimers) plus 5' imperfect hairpin) was “binds”.

B10: PA#2/8 (5'Bio) (structured_DNA)
DNA: ATACCAGCTTATTCAATTAGCAACATGAGGGGGATAGAGGGGGTGGGTTCTCTCGGCTACAATCGTAATCAGTTAG
Regarding B10, in data set [3] (label: 5'-biotin, G4 (parallel, di-/multimers) plus 5' imperfect hairpin), the Kd came out at 190 ± 13 nM.
